Measured values published in patent US8962569B2, “Compositions comprising spp24 peptide fragments” (The Regeants of the University of California, priority 2010, dated 2015).

Assays:
BMP-2 [1] = biological target: T1, BMP-2 (Homo sapiens, UniProt P12643); settings: cited from earlier work
T1 sequence (P12643 283-396): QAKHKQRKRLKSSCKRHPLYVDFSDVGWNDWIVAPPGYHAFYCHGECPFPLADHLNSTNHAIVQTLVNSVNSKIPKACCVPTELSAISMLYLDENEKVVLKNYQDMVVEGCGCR

BMP-2 [2] = biological target: T1, BMP-2; settings: Behnam, 2005; cited from earlier work
A549 cells [3] = assay: Subcutaneous implantation of A549 cells and direct measurement of tumor size; type: in vivo, SCID mice; settings: 8 weeks after co-injection with A549 cells; rhBMP-2 10 μg, spp24 1000 μg; cells alone 127.4±117.5; mean±SE per method
From the text: (§1) Forty, eight-week-old male SCID mice (weight 23.5 to 29.1 g, mean 27.1 g) were housed under pathogen-free conditions in accordance with the protocol approved by the Chancellor's Animal Research Committee (ARC) at the University of California, Los Angeles. There were four experimental groups in this study, and each group underwent implantation of cells in both a subcutaneous model and an intra-tibial injection. Group I animals received A549 cells alone as a control group. […] Group III received an A549 cells+spp24 (1000 μg). […] There were 10 animals in each group.

A549 cells [4] = assay: Intratibial implantation of A549 cells and radiographic analysis; type: in vivo, SCID mice; settings: 8 weeks
From the text: as §1

[5] = test system: A549 human non-small cell lung cancer cells; assay: A549 cell proliferation assay (Quick Cell Proliferation Assay); type: cell-based; settings: 48 h
Experimental: The human non-small cell lung cancer (NSCLC) cell line A549 was used in this study (ATCC, Manassas, Va., USA). A549 cells were maintained in DMEM with 10% FBS and antibiotics (Fisher scientific, Pittsburgh, Pa.) in a humidified incubator with 5% CO2 at 37° C. Cells were not used beyond 10 passages. Cells were plated in serum free medium at a density of 10,000 cells/well and allowed to attach for 24 h. […] Recombinant spp24 was prepared as described previously (Murray E J B, et al., Connect Tiss Res 2007; 48:1-8) and added in serum-free media to final concentrations of 10, 25, 50, 75 μg/ml. Cells were incubated for 48 h before cell proliferation was assessed using Quick Cell Proliferation Assay (BioVision, Mountain View, Calif., USA) according to manufacturer's recommendations. Results were reported as a percentage compared with untreated cells.

A549 cells [6] = assay: Histologic and histomorphometric analysis of A549 tumors (subcutaneous and tibiae); type: in vivo, SCID mice
From the text: as §1
Animals were killed at 8 weeks (or earlier if required by an excessive tumor size) and both the soft tissue tumor and the hind limb were harvested for histological analysis. Soft tissue tumors were fixed in 10% buffered formalin. The tibias were fixed in 10% buffered formalin followed by decalcification in a solution of 10% EDTA for 2 weeks at room temperature with gentle stirring. Longitudinal sections of the proximal tibia were prepared and stained with H&E. For histologic and histomorphometric analyses, all microscopic slides were scanned with a ScanScope GL (Aperio Technologies, Inc., Vista, Calif.) equipped with a 20× objective. The following parameters were considered in the qualitative analysis: amount of tumor cells between cortices from the proximal tibia; anterior and posterior cortical destruction and remodeling; new bone formation within the medullary canal; and anterior/posterior extension of bone formation outside the medullary canal. These histologic findings were graded with the following scale: 0 (none), 1 (mild), 2 (moderate), 3 (intense). Bone volume and tumor volume, expressed as a percentage of total tissue volume (% BV/TV and % TuV/TV, respectively) were quantified in whole-slide images using Spectrum software (Aperio Technologies, Inc. Vista, Calif.).

[7] = Proteolysis of recombinant spp24 by MC3T3-E1 cell extracts (SDS-PAGE, anti-His6 Western blot); type: in vitro ADME, mouse; settings: 37° C.; for time to essentially complete degradation of His6-spp24: presence of 4 mM calcium, MC3T3-E1 cell extracts
Experimental: MC3T3-E1 mouse preosteoblastic cells were cultured to confluence, harvested by trypsinization, pelleted by centrifugation, and suspended in digestion buffer (100 mM HEPES-HCl, pH 7.5, 12.5 mM KCl, 6.25 mM (3-mercaptoethanol, and 0.2% Triton X-100) plus or minus 4 mM CaCl2 at a protein concentration of 2.4 mg/ml. Recombinant spp24 (residues 23 to 204) was exhaustively dialyzed vs. water, lyophilized, and resuspended at 1 mg/ml in digestion buffer (plus or minus 4 mM CaCl2). Equal volumes of cell extract and spp24 were combined, and incubated at 37° C. for 0 to 24 hours. At the intervals indicated, 4 μl aliquots equivalent to 2 μg spp24 were removed, subjected to SDS-PAGE, and Western blotted using antibody directed against the His6 tag as outlined in detail above.

[8] = Stability of IMAC-purified His6-spp24 on frozen storage (2D SDS-PAGE); type: physicochemical; settings: stored frozen (−20° C., 3 months) in 8 M urea in the presence of protease inhibitors
Experimental: The proteins in representative fractions containing His6-spp24 and its degradation products were separated by 2D SDS-PAGE by the method of O'Farrell (O'Farrell P. H., J. Biol. Chem., 250, 4007-4021 (1975)) (Nancy Kendrick, Ph.D., Kendrick Laboratories, Madison, Wis.) (Behnam, 2005, Behnam, 2006; Behnam, 2002; and Behnam and Murray, 2005). These fractions had been stored at −20° C. for 3 months in urea buffer plus protease inhibitors, resulting in the slow accumulation of degradation products similar to those previously reported (Urist, 1987) that are not abundant in freshly-prepared fractions. The gel was stained with Coomassie Brilliant Blue, and the three major spots of the appropriate molecular weight (<24 kDa) were selected, excised, eluted, reduced in 5% β-mercaptoethanol, alkylated, trypsin digested, and subjected to peptide mass fingerprint analysis by MALDI/ToF MS (Mary Ann Gawinowicz, Ph.D., Protein Chemistry Core Facility, Howard Hughes Medical Institute, Columbia University, New York, N.Y.) to verify their identities and structures (Behnam, 2005, Behnam, 2006, Behnam, 2002; and Behnam and Murray, 2005). Methionines were not oxidized. Peptides with a mass [M+H^+]>1000 Da were analyzed. The peptide fingerprint was compared to those in the SWISS-PRO and NCBI databanks (Behnam, 2005, Behnam, 2006; Behnam, 2002; and Behnam and Murray, 2005). […]

A549 = settings: Feeley, 2006; cited from earlier work
[9] = tibiae, grade 0 (none) to 3 (intense), mean

Molecule: BBP: synthetic cyclic 19 amino acid peptide of the TRH1 domain of bovine spp24, CRSTVRMSAEQVQNVWVRC (SEQ ID NO: 8) [reference compound]
- effect on BMP-2-induced ectopic bone formation in vivo (BMP-2 [1]; Behnam, 2005): enhances the rate and magnitude of BMP-2-induced ectopic bone formation in vivo
- binding of BMP-2 (BMP-2 [2]): specifically binds BMP-2

B1: spp24: recombinant His6-tagged bovine secreted phosphoprotein-24 kDa, residues 24 to 203 (SEQ ID NO:1), expressed in E. coli (protein)
chain: MHHHHHHFPVYDYDPASLKEALSASVAKVNSQSLSPYLFRAFRSSVKRVNALDEDSLTMDLEFRIQETTCRRESEADPATCDFQRGYHVPVAVCRSTVRMSAEQVQNVWVRCHWSSSSGSSSSEEMFFGDILGSSTSRNSYLLGLTPDRSRGEPLYEPSREMRRNFPLGNRRYSNPWPRARVNPGFE
modifications: N-terminal Met-His6 tag; Synthetic spp24
- effect on BMP-2 induced bone formation (BMP-2 [1]; ectopic bone forming assay (Sintuu, 2008)): strongly inhibits BMP-2 induced bone formation
- subcutaneous tumor volume (A549 cells [3]): 12.6±21.6 mm3
- animals with minimal new bone formation (A549 cells [4]): three of ten
- average radiographic score (A549 cells [4]; score 0 normal to 3 obliteration of two cortices, cells alone 2.1): 0.5±0.6
- effect on A549 cell proliferation ([5]; agent alone, serum-free media, rhBMP-2 0-500 ng/ml, spp24 10-75 μg/ml): slight dose-dependent inhibition of proliferation
- effect of spp24 on BMP-stimulated A549 proliferation ([5]; spp24 added to the BMP treatment): attenuation of the BMP affect at all doses
- % TuV/TV (tumor volume/total volume) (A549 cells [6]; longitudinal section of the proximal tibia at midline, mean): insufficient
- tumor cells in histological specimens (A549 cells [6]; subcutaneous and intratibial sites, 8 weeks): only a few scattered tumor cells
- % BV/TV (bone volume/total volume) (A549 cells [6]; tibia section, mean): insufficient
- Anterior cortex destruction (2) (A549 cells [6]; [9]): 0
- Extension of bone formation outside the medullary canal (5) (A549 cells [6]; [9]): 0
- New bone formation within the medullary canal (4) (A549 cells [6]; [9]): 0
- Posterior cortex destruction (3) (A549 cells [6]; [9]): 0
- Amount of tumor cells between cortices (1) (A549 cells [6]; tibiae, grade 0 (none), 1 (mild), 2 (moderate), 3 (intense), mean): 0
- degradation of His6-spp24 by MC3T3-E1 cell extracts ([7]; absence of added calcium, 0 to 24 hours): essentially no degradation was observed until 24 hr
- time to essentially complete degradation of His6-spp24 [7]: ≤ 2 h
- time to essentially complete degradation of His6-spp24 ([7]; listed as His6-spp24): about 2 hours
- susceptibility to proteolysis on storage [8]: highly susceptible to proteolysis

B2: noggin: an inhibitor of BMPs (protein, UniProt Q13253 28-232, looked up)
Noggin: QHYLHIRPAPSDNLPLVDLIEHPDPIFDPKEKDLNETLLRSLLGGHYDPGFMATSPPEDRPGGGGGAAGGAEDLAELDQLLRQRPSGAMPSEIKGLEFSEGLAQGKKQRLSKKLRRKLQMWLWSQTFCPVLYAWNDLGSRFWPRYVKVGSCFSKRSCSVPEGMVCKPSKSVHLTVLRWRCQRRGGQRCGWIPIQYPIISECKCSC
- effect on tumor growth (A549): reduce tumor growth
